Assay: label from the status in PepcDB records
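Also: failed if final PepcDB status was selected cloned or expressed and not failed if soluble or beyond.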

Sequence | protein production
MPLTMLSEGKGCRIKEVRAGLELKRRLTEMGFTPSSSVRLIGCERGNLLVNVNGARYALGKGMAMKIMVEPDPCEGVELGLEHHHHHH | failed
MKKTVIKETERLLILLGATGLLSGIGIVMNGTPITAQATTTTTQTQGILHSGDFGTSHWYISDDLTLHIGAGTFANLSNSQSAPPWTAYGDQVAKIVIEGPVTLAPNSRELFGYLGATSIEGLDQIDASHVTNFEFAFFGIQVPNLDLTSWDVHNVTDAGFMFMRAQSDVINLSGWQMPKLKLAQWMFMLAPRVHELDLAGINFRNADATRALMNMNLTVIHLGPDSLLTGTNLQPFHNDAYQDMWQDIGDGTTEAPTGKNRYTYSQLMAEFKGAAPYTYVRAKNPGQPVTVQYLDQLNQALVKADTLTGYYGDTFTAQAKTFAGYHVTSVDGEPTGTFGSRPYTVTYHYAVDEKNQQSLLGEDATITVGDPAPTSETFKAKATDKDGQALPVVVDLSQATLNQPGRYPVTLTTRDGQSKAVTLTVKAADESSSSSSSSSIDRSHSSSTPTSSSNSDDSLSSGDLISGGDTDLAVFKGQAVYATKTVRLYQRPTFKASQVRARYAKQSRTKRPMFVVIGSAHSKHHALRFKVRDVNHHSKTAGKVGYITAKKAYVTNVYYQRTYTRVTVINPQGVNGYRTRKLTGKTRHYRRGQTLRVKRLVRYHLTTRYVLTNGRYVTTNKKLVKVQQNSVQQSTQHSAAVTTRTIK | failed
MYIRGVGDIIYFLQQLHPLEQALLAGIFTWGMTALGAASVFFTREVSRKVLDSMLGFTAGVMIAASYWSLLAPAIEMSEGRSIPAWLPAVLGFLLGGLFLRGIDKILPHLQFGSATEAAEGLKTSWRRNTLLVLAVTLHNIPEGLAVGVAFGAAASGYMYSLPAAIALTTGIGIQNFPEGLVVSVPLRREGMSCFKSFNYGQASAIVEPIASVIGVAAVMLVRPILPYALAFAAGAMIFVVVEEIIPESQHGGNAPLATIGTMIGFSVMMVLDVAFG | failed
LDPGLQPGQFSADEAGAQLFAQSYQSSAEQVLFQSVAASWAHDTNITAENARRQEEAALLSQEFAEAWGQKAKELYEPIWQQFTDPQLRRIIGAVRTLGSANLPLAKRQQYNALLSQMSRIYSTAKVCLPQKTATCWSLDPDLTNILASSRSYAMLLFAWEGWHNAAGIPLKPLYEDFTALSNEAYKQDGFTDTGAYWRSWYNSPTFEDDLEHLYQQLEPLYLNLHAFVRRALHRRYGDRYINLRGPIPAHLLGDMWAQSWENIYDMVVPFPDKPNLDVTSTMLQQGWQATHMFRVAEEFFTSLELSPMPPEFWEGSMLEKPADGREVVCHASAWDFYNRKDFRIKQCTRVTMDQLSTVHHEMGHIQYYLQYKDLPVSLRRGANPGFHEAIGDVLALSVSTPEHLHKIGLLDRVTNDTESDINYLLKMALEKIAFLPFGYLVDQWRWGVFSGRTPPSRYNFDWWYLRTKYQGICPPVTRNETHFDAGAKFHVPNVTPYIRYFVSFVLQFQFHEALCKEAGYEGPLHQCDIYRSTKAGAKLRKVLRAGSSRPWQEVLKDMVGLDALDAQPLLKYFQLVTQWLQEQNQQNGEVLGWPEYQWHPPLPDNYPEGIDLVTDEAEASKFVEEYDL | not failed
MSLIVVTGGAGFIGSHVVDKLSESNEIVVIDNLSSGNEEFVNEAARLVKADLAADDIKDYLKGAEEVWHIAANPDVRIGAENPDEIYRNNVLATYRLLEAMRKAGVSRIVFTSTSTVYGEAKVIPTPEDYPTHPISLYGASKLACEALIESYCHTFDMQAWIYRFANVIGRRSTHGVIYDFIMKLKRNPEELEILGNGEQNKSYIYISDCVDAMLFGLRGDERVNIFNIGSEDQIKVKRIAEIVCEELGLSPRFRFTGGDRGWKGDVPVMLLSIEKLKRLGWKPRYNSEEAVRMAVRDLVEDLDEEGHHHHHH | not failed
MLLDKIQNLIIQSDISIFQSMKKMDEEKVKLLFVFRGDCFVGILTIGDIQRAIIKQNDTSMQINNILDQNKVFAYKGESLEIIKNKMIHLRAECMPILDSKGELVDVLFWKDLFIDEVRVDDRKIDLPVVIMAGGKGTRLKPLTNVIPKPLIPIGDKTILEAILDQFESIGCSKFYMSVNYKYDILKFYLAQLDHKYDIRFFKEDKPLGTIGSVSLLKDKISTPFFVSNCDIIIDQDYRDVYDYHINNSNDLTIVTAVKRTRIPYGVIETIENGLMTELIEKPEFTYMINSGVYILQPELINEIPENELFHITHLMEKVKSRGGKIGCFPVSEKSWTDIGEWNEYLKLLGILEHHHHHH | failed
MKDIIRFILRLVQNPIVLAILWFGVAIRGFWVSWTEGLANNYLIFSRSFFHALEQTPLYVEYPKEYFDLFLYGIPFTLLIAPFSIMPTMVGSALWSLCNALLLYFAIKKLEFEKWKTAIIVWLSYNGLYLSVVTQQYNAAVAAFILFTFILVERKKDFWAALMIVLGTLTKIYGIVGLAFFLFSKRKLYFLWGILFWAFVLFVVPMFYTSPQYVFDSYKEWVSILVVKNDVNELSFYQNISLLGMVRKITHAVEYSDMWLIIPGIVLFLLPYLRIGQYENRNFRLSFLASVLLFMVLFSTGTEECGYVGALIGVGIWYVSTPTYKKSFVLNTCLLLFCFALTAASSSSILFSKHFRTEYITSFALKALPCAIIWFKIIWEQLTQDYTSRTPTPFLHKKDDERIDVILPCYNPHEGWEQQLIEKHKELEGMLNGYNIRFIVVNDGSKRGFTEEAVLRLTNNLPNTIIVDNKINQGKGAAVRDGIAHSDSELALYTDYDFPYKIESVCQVIKYLEEGYDVVVANRNHTYYSQLSTRRKLASHASRFLNFMLLGLTHTDTQGGLKGFNCKGKAFLASTRIKQFLFDTEFIYKASLDDTTFIKEVPVDLRGEVMLPDMKKGVFVNELKNLLMICWRG | failed
GGEVHAAWHLRYAGRDFFVKCDERELLPGFTAEADQLELLSRSKTVTVPKVWAVGADRDYSFLVMDYLPPRPLDAHSAFILGQQIARLHQWSDQPQFGLDFDNALSTTPQPNTWQRRWSTFFAEQRIGWQLELAAEKGIAFGNIDAIVEHIQQRLASHQPQPSLLHGDLWSGNCALGPDGPYIFDPACYWGDRECDLAMLPLHTEQ | failed
MNHWSMPPNPEKALMLAQRAVAVFVYDAVRLEGINFTLPEVQTLLQGVTVGGHRLSDQQIAVNQGEAWKLLFQMIRDGRFELTPDCAMALHGVAAKEEALEWGCFRSGSVLIAGTEYEPPAASELPTRFDRMIDELQHMDDVHDQAVHLFLTMARCQFFYDVNKRMGRFMMNGHLLSNGYPAINIPASSQLEFNELMLRFYDSGDQREMNAFVRSCMDERVVLIMKEELEHHHHHH | failed
MEGITSFENLPEELKREILLRMSPNSLVTCSRVSKKLASMIRTKSFKELYLSRSMRCPRVLFAANGTITPHVLFTSFQEKEKPLLSSGEQRIITSLQGEFLFSPPVRGLICLVERESARIVICNPGTTKFLALPIVEADETTRIITHLGYDEQKDVFKVLCTRTKPETPHLVLTVGSGKEPWREIVCKFPHTVIGAGVFYRGTLYYLAAFHSKSIIMTFDVRSETFMPITSPDGVDLNQGSWRLVNYSQQGGFALVNESRGFIYQSNGGDAYLETWVWNVDTRKWSMNSILIRKWKDYAQDNEDYDYRFRGTQGTYELVFAPIRVKEDGSLTVILYNTDTQAFRRSKVQMMGEGHEFRFVDTFLDHVDSTLLI | failed
MCGAWFFGARVFEFFTSLFESMKVLKLLPNFLTILRIVLSLFLLFLLLNTRTYFSFLTPFQTNMISSLVFLFAALTDLLDGYIARSYKAKSRFGEIFDPLADKILILSAFLGLVYLDRVNAWIPFVILGREFFISGLRVLAANEKKDIPVNALGKYKTVSQVVAIGALLADVTYSYALVAIAVFLTLYSGIDYTIKYYKS | failed
MLTAAVLLPLVGALVAWIVPDNRLRPLVLPAVAVPHFLLTLALLAWTPPPSPQGWIFLDPLGKIVLLCISTLFLICAVYAVGYLAYRRDRSNRVLCMGLLACLSAMTLVTASQHLGLLWVAVETTTVTMAPLIYFNRNARSIEATWKYLLICSVGIALALLGLFFLAYATLVAHRDATLLLGPILASARELNPGWLHASFIFMLVGFGSKMGIAPLHSWKPDAYGEAPGLVGALLAGGLVNCAFLAILRVYQISLASGGEYLFFQKALLTMGLISMGLAAVFMARQADFKRMLAYSSVEHVGILAVALGLGKGALFGALFHLLNNGLTKGVLFLSSGNIHRSFNSKSTEVVRGALARLPWSAGLFLAGFIAITGSPPFSPFVSEFSIVSSAFVEGRYLVGGLFLFFLAVIFIGMALTVLPLVMGVPPADAERTDYRDRLLTVGPPLALLGLILMLGVWLPEPLLRLLGEGAALLEAKP | failed
GMKTSGKQDEAWIMSRLIKQLTDMGFPREPAEEALKSNNMNLDQAMSALLEKKVDVDKRGLGVTDHNGMAAK | not failed
MAKKTSSKWYSTSAFSRLEKLGLRHPKPSPFIGNLTFFRQGFWESQMELRKLYGPLCGYYLGRRMFIVISEPDMIKQVLVENFSNFTNRMASGLEFKSVADSVLFLRDKRWEEVRGALMSAFSPEKLNEMVPLISQACDLLLAHLKRYAESGDAFDIQRCYCNYTTDVVASVAFGTPVDSWQAPEDPFVKHCKRFFENVELLGTPWLQVYNNFPALLDARILPNKNRDELNGFFNKLIRNVIALRDQQAAEERRRDFLQMVLDARHSASPMGVQDFDIVRDVFSSTGCKPNPSRQHQPSPMARPLTVDEIVGQAFIFLIAGYEIITNTLSFATYLLATNPDCQEKLLREVDVFKEKHMAPEFCSLEEGLPYLDMVIAETLRMYPPAFRFTREAAQDCEVLGQRIPAGAVLEMAVGALHHDPEHWPSPETFNPERFTAEARQQHRPFTYLPFGAGPRSCLGVRLGLLEVKLTLLHVLHKFRFQACPETQVPLQLESKSALGPKNGVYIKIVSRHHHH | failed
MYFFVPTANSKINQMIFYLSSMNLDMIKEYILSFGIWAPITSFLLMVLQSVIAPIPAFLITLSNAAIFGWVKGAILSWSSAMAGAALCFYIARGLGRDAVEKLTSKFALKDIDGFFEKYGKHTILIARLLPFISFDLVSYAAGLTSMNFWSFFIATGIGQLPATIVYSYVGGMLTGGAQLLMSGLLILFALSIAIYVGKKVWNEKRGKNDK | failed
MLESVAAEPRRAAATDQAGTEARKQRLRRRLERLIGIAATEGNELVPLRNGDEIFPAMLRAIRTAEHTVDMMTFVYWRGQIARDFAAALAERARAGVRVRLLLDGFGAKQIEEGLLESMNSAGVEVAWFRKPLWLSPLKQNHRCHRKVLVVDEHTAFTGGVGIAEEWGGDARNPSEWRDTHVQVRGPAVDGIAAAFAQNWAECHDELFDERDRFTEHEQSGRATVQVVRGSASFGWQDMQTLVRVMLASAEERFRLSTAYFAPDSYFVDLLCATARRGVQVQILLPGPYTDQRACRLAGQHYYGTLLDAGVEIRQYQPTMLHTKIMTVDGVAALIGSSNFNRRSMEHDEEIMLAVLDETFTAALDRDFEEDRERAEAIVAARWKHRSPVQRLKEAIVAPVRRFL | failed
MNYPAENFTKRFLSSLAQVMLQSNTVTGFLFLVGIGLNSPTMLLGCILAILSSLAVAKLFQYDSNCVTKGFYGFNAALVGIAVFSLLPLSFISLVLVLLGGAFSALLMHVMITKIPSIPALTTPFILSTWTIVLIIDSVGLADPMSGSFTGSISPTLIDSLHGVLRGVGQVMLQDSWLSGAVFCCALLFSSYKTAVWAILGSLIGLLVATTFGFSQEKAMMGLYGFNGCLVAIALVDRYPNKYWLIILAILFSVLFTRVFEMIAIPAFTAPFVMTTWLMIGIVKLKADFD | failed
MTDNRPCRKDLLDWINVVSFAVDDVKLFLDTHPCNKEAMEFFDEFKKQRVQALKEYAKYYGPLTLDTASTCTERWNWINEPWPWQEGGCLEHHHHHH | failed

Source: a protein production outcome set (Wang et al. 2014)
